In patent US20170002055A1, “Novel peptides and combination of peptides for use in immunotherapy against ovarian cancer and other cancers” (immatics biotechnologies GmbH, priority 2015, published 2017):

These substances were tested against HLA-A*02:01 (Homo sapiens, UniProt P04439, D140Y/D185E/D98H/E176V/E277Q/G131W/G231S/I119V/I121R/I166T/I218V/L300P/L318F/N151K/N90K/P208A/P217A/Q86G/Q94H/R138H/R169H/T345S) (assay: MHC binding assay (UV-ligand exchange, β2m ELISA, peptide exchange yield)). Conditions: MHC class I binding score; binding to HLA-A*02:01 ranged by peptide exchange yield (UV-ligand exchange, β2m ELISA).
Source text: Candidate peptides for T cell based therapies according to the present invention were further tested for their MHC binding capacity (affinity). The individual peptide-MHC complexes were produced by UV-ligand exchange, where a UV-sensitive peptide is cleaved upon UV-irradiation, and exchanged with the peptide of interest as analyzed. Only peptide candidates that can effectively bind and stabilize the peptide-receptive MHC molecules prevent dissociation of the MHC complexes. To determine the yield of the exchange reaction, an ELISA was performed based on the detection of the light chain (β2m) of stabilized MHC complexes. The assay was performed as generally described in Rodenko et al. (Rodenko et al., 2006).
96 well MAXISorp plates (NUNC) were coated over night with 2 ug/ml streptavidin in PBS at room temperature, washed 4× and blocked for 1h at 37° C. in 2% BSA containing blocking buffer. […] Peptide-MHC monomers of the UV-exchange reaction were diluted 100 fold in blocking buffer. Samples were incubated for 1h at 37° C., washed four times, incubated with 2 ug/ml HRP conjugated anti-β2m for 1h at 37° C., washed again and detected with TMB solution that is stopped with […]. Absorption was measured at 450 nm. Candidate peptides that show a high exchange yield (preferably higher than 50%, most preferred higher than 75%) are generally preferred for a generation and production of antibodies or fragments thereof, and/or T cell receptors or fragments thereof, as they show sufficient avidity to the MHC molecules and prevent dissociation of the MHC complexes.

Peptide exchange | Substance
“+++” (≧50 = +++) | 102 (YLFESEGLVL; listed as Homo sapiens) [compound 102]
“+++” (≧50 = +++) | 301 (FLVEDLVDSL; listed as Homo sapiens) [compound 301]
“+++” (≧50 = +++) | 57 (TLAELQPPVQL; listed as Homo sapiens) [compound 57]
“+++” (≧50 = +++) | 588 (SLLPLSHLV; listed as Homo sapiens) [compound 588]
“+++” (≧50 = +++) | 591 (SMAELDIKL; listed as Homo sapiens) [compound 591]
“+++” (≧50 = +++) | 161 (ALLEGVNTV; listed as Homo sapiens) [compound 161]
“+++” (≧50 = +++) | 383 (ALLELENSVTL; listed as Homo sapiens) [compound 383]
“+++” (≧50 = +++) | 478 (YLLHEKLNL; listed as Homo sapiens) [compound 478]
“+++” (≧50 = +++) | 501 (LLDPNVKSIFV; listed as Homo sapiens) [compound 501]
“+++” (≧50 = +++) | 512 (SLSEIVPCL; listed as Homo sapiens) [compound 512]
“++” (≧20% = ++) | 494 (ALQPEPIKV; listed as Homo sapiens) [compound 494]
“+++” (≧50 = +++) | 300 (ALLGQTFSL; listed as Homo sapiens) [compound 300]
“++” (≧20% = ++) | 229 (RLPGPLGTV; listed as Homo sapiens) [compound 229]
“++” (≧20% = ++) | 458 (SLIDKLYNI; listed as Homo sapiens) [compound 458]
“++++” (≧75% = ++++) | 348 (ILLDVKTRL; listed as Homo sapiens) [compound 348]
“+++” (≧50 = +++) | 572 (ALADLIEKELSV; listed as Homo sapiens) [compound 572]
“+++” (≧50 = +++) | 599 (YLLNDASLISV; listed as Homo sapiens) [compound 599]
“+++” (≧50 = +++) | 578 (FLDPGGPMMKL; listed as Homo sapiens) [compound 578]
“+++” (≧50 = +++) | 442 (GLLGGGGVLGV; listed as Homo sapiens) [compound 442]
“++” (≧20% = ++) | 354 (LILEGVDTV; listed as Homo sapiens) [compound 354]

Peptide exchange | Substance
“+++” (≧50 = +++) | 487 (LLINSVFHV; listed as Homo sapiens) [compound 487]
“+++” (≧50 = +++) | 286 (YLFPGIPEL; listed as Homo sapiens) [compound 286]
“+++” (≧50 = +++) | 593 (GLPRFGIEMV; listed as Homo sapiens) [compound 593]
“+++” (≧50 = +++) | 70 (GLLDYPVGV; listed as Homo sapiens) [compound 70]
“+++” (≧50 = +++) | 255 (VLASYNLTV; listed as Homo sapiens) [compound 255]
“+++” (≧50 = +++) | 618 (VLFDSESIGIYV; listed as Homo sapiens) [compound 618]
“+++” (≧50 = +++) | 546 (VMIAGKVAVV; listed as Homo sapiens) [compound 546]
“+++” (≧50 = +++) | 562 (YLEELPEKLKL; listed as Homo sapiens) [compound 562]
“+++” (≧50 = +++) | 82 (FLSSVTYNL; listed as Homo sapiens) [compound 82]
“+++” (≧50 = +++) | 616 (VLIDEVESL; listed as Homo sapiens) [compound 616]
“+++” (≧50 = +++) | 158 (KLFDVDEDGYI; listed as Homo sapiens) [compound 158]
“+++” (≧50 = +++) | 122 (FLLAEDDIYL; listed as Homo sapiens) [compound 122]
“+++” (≧50 = +++) | 357 (SMHDLVLQV; listed as Homo sapiens) [compound 357]
“+++” (≧50 = +++) | 171 (LLLPLQILL; listed as Homo sapiens) [compound 171]
“+++” (≧50 = +++) | 189 (ALQRKLPYV; listed as Homo sapiens) [compound 189]
“+++” (≧50 = +++) | 514 (ILVDWLVQV; listed as Homo sapiens) [compound 514]
“+++” (≧50 = +++) | 173 (LLDSASAGLYL; listed as Homo sapiens) [compound 173]
“++” (≧20% = ++) | 273 (NLFQSVREV; listed as Homo sapiens) [compound 273]
“+++” (≧50 = +++) | 345 (VIWKALIHL; listed as Homo sapiens) [compound 345]
“+++” (≧50 = +++) | 13 (YLMDESLNL; listed as Homo sapiens) [compound 13]

Peptide exchange | Substance
“+++” (≧50 = +++) | 479 (SLFGNSGILENV; listed as Homo sapiens) [compound 479]
“+++” (≧50 = +++) | 476 (ALMERTGYSMV; listed as Homo sapiens) [compound 476]
“+++” (≧50 = +++) | 556 (FLTDLEDLTL; listed as Homo sapiens) [compound 556]
“+++” (≧50 = +++) | 169 (NLPEYLPFV; listed as Homo sapiens) [compound 169]
“+++” (≧50 = +++) | 88 (FLLVGDLMAV; listed as Homo sapiens) [compound 88]
“++++” (≧75% = ++++) | 438 (KLLPLAGLYL; listed as Homo sapiens) [compound 438]
“++” (≧20% = ++) | 186 (TLFFQQNAL; listed as Homo sapiens) [compound 186]
“+++” (≧50 = +++) | 188 (GLFPVTPEAV; listed as Homo sapiens) [compound 188]
“+++” (≧50 = +++) | 555 (YVLEGLKSV; listed as Homo sapiens) [compound 555]
“++++” (≧75% = ++++) | 55 (SLLDLETLSL; listed as Homo sapiens) [compound 55]
“++” (≧20% = ++) | 265 (LLFGGTKTV; listed as Homo sapiens) [compound 265]
“+++” (≧50 = +++) | 507 (KLIDDQDISISL; listed as Homo sapiens) [compound 507]
“++” (≧20% = ++) | 566 (VIADGGIQNV; listed as Homo sapiens) [compound 566]
“+++” (≧50 = +++) | 623 (YLVEDIQHI; listed as Homo sapiens) [compound 623]
“++” (≧20% = ++) | 570 (ALANQIPTV; listed as Homo sapiens) [compound 570]
“+++” (≧50 = +++) | 190 (FLSSLTETI; listed as Homo sapiens) [compound 190]
“+++” (≧50 = +++) | 125 (VQIHQVAQV; listed as Homo sapiens) [compound 125]
“+++” (≧50 = +++) | 541 (SMLEPVPEL; listed as Homo sapiens) [compound 541]
“++” (≧20% = ++) | 579 (NLMEMVAQL; listed as Homo sapiens) [compound 579]
